Experimental data: the DeepSol protein solubility set

Assay: soluble on expression in E. coli; label from the status in PepcDB or PDB records

| Sequence | soluble on expression in E. coli |
| --- | --- |
| MSRRSRSRSRSPKRDREERKRREDRDRDRERKRDRKDRERKRRHRSSSSEGSQAEPHQLGSIFREERRRRERNESPKLPPPPPPPPSDPPVDTSIPFDVSTLNEPTKKWLEEKIVEQVSARVHQLEAMMAEKATSARNEMEKMLRAQIEAEMAVELAECKKRDEESRKKCKQLEAELERKVLEAEESRKKFEEDRLAMLEQKSQLERDRAELARQKSDMKKNEQQAILNKSGNSRAPIKFKFGK | not soluble |
| MGSDKIHHHHHHMSSSSLSSTSTRVTYAVGDFVYFDDTSATDAPYQIRKIEELVKTEKGGVDARCVVYLRRRDIPQHLLKIADQAQRRFDNYYEVDKKKPENFTTKGFIVVNGASEAAPEAAPEATEASAETSETKVKEDTDDVAEKMEEDEECPAPVGQGRTSSTEEPSASDAPAATAKDKKEEKEAKENAKNLKETAEAEATKLIDWGDGGLPLGVDKLTPDQRLKLRQHEIFMTRQSEILPAAAIRGKCRVVLLGDGEEAQNYLPLDDTFYHSLVYDPNAQTLLADK | not soluble |
| MSLKLTIGVSYPTANSPFWNAYTRFIDEGSHQLGVYINAVSAEEDEQKQLSDVETLINQGIDGLIVTPQSTSIAPTLLRIATQANIPVVVVDRYPGYAPGQNKNADYVAFLGPNNEKAGSGIAEALMAGGGSKFLALGGMPGNSVAQGRKAGLESALTAVGHRLVQFQYAGDSEDKGLAAAENMLQAHPAGDANAIWCFNDKLCQGAIKAVYNANREKEFIFGGMDLTPQAIAAIENGLYTVSLGAHWLEGGFGLAILYRKIHGQDPAERMVKLDLLKVDKSNVAKFKARYEGHHHHHH | not soluble |
| MGSDKIHHHHHHMSIEIRQVNNLRKKRQFFQYNYQLYKDDPYWVSWPVANLVKMFDPEECGFYEHGILEAWLAYQNGKIVGRIAGSIDGTYNQTYGVQTAFFGFYECIDDQDVSKILFEQVENWAQSYGMTQLLGPFSLSPIYGAGMLIAGFDDSPYVAMPYNRSYYPNQLESSGFKKAKDYNAFRIKGELTIPEFLTKNAQRWRNKRITYRQLNPDQLAQESDLVCDLYNDGFAGQWGYTYIERSEFYQLVLDWIQVIDPRLFLFVLIGDNPVGFGMLVPDVFQILHQTKTLPGLLRYLGRRIFTFGRENEITRYRLDSLCIRKQYQSLGLGVLLWCEIMQQYLNSNYTEIEFSPILEDNTMAQTLLLKLGAERSKVYRVFEKSWCN | not soluble |
| SGQRPSLPMLATDERSTDKESPNEDREFVPCSSLDVRRIYPKGPLLVLPEKIYLYSEPTVKELLPFDVVINVAEEANDLRMQVPAVEYHHYRWEHDSQIALDLPSLTSIIHAATTKREKILIHSQCGLSRSATLIIAYIMKYHNLSLRHSYDLLKSRADKINPSIGLIFQLMEWEVALNAKT | soluble |
| MLVTKKEISVANIGEELWRFSNSSYTTGSPWTETQFAEDFAQENSEYLFLVENGQWLGYIAYHFILDEAEISHVVVNGQKQHQGIGCQLMKAFKEYVKSRDITQIFLEVRESNILAQKLYEKTGFRKVAVRKNYYKEPQENAFVMCAKLRKEAQ | not soluble |
| MSLEEYPQMIVFEDVPYGFWAYDAIMDLAYHKIILGYGNGKYGVGDLTTREQVAGIIYRTLEMKEEGSVANPYKDISDSTTTFKKEILALTKRGVFTGDGQGNFRPKAPVSRAEMAVILKRAFTFETKQKHTFKDIPKGHWAEDAISALQSNNVVRGTGNGMYELNRPVPREQYAQFINNAIINYHLKEDWREGHHHHHH | not soluble |
| MSDNYKFFRHDNCEYFPCHKVKDKETFNCLFCYCPLYFLENCGGNKSDFNGVKDCSNCLIPHSKNGYDYIINKIREVNKEKRAKNNLTLEHHHHHH | soluble |
| MSLTIKEIADKVNLSPTTVSNVIHGRKGKVSPDNYKKISRALEESKYVSNMGGRLLGRHGSKIIAVILNYERRSEMNVVSDPFYNQIVGFLEEEIRKKSYFMMLYTSGSVTESLRLATAWDIEGLIVLGSHPDDAKNFIKQQKRPVAFIDTYVDKESMTDDFINVGLQDFKGGYQITNYLIGLGHRRIGFFADGNQLLGVDQQRFAGFKKALSEADINLENPGFFGLDYRTNQRHIFLKKFSETKLKDYTALVFTSDFLAVDAINVFLDNGFKVPEDISITGFDHNIFSEQCRPKLTTIGQNVQKKAVLAVDFLTERIQSKQAIKKINLLLDAELIVQDSTAREGHHHHHH | soluble |
| MNELVFLHSQYIEEEPYTTDEVIAKYSQIKRESVSKLIKKYQKDLEEFGKVGFEIRAMESGQKAKFYQLNEEQATLLITYLDNTEPVRRFKKALVRQFYDMKNGLYARRMERQKEKSVRKSMTDVIKELGLSPHYYKHYTDLVYKTALGFNAKQLREAREVSKKSTILDFLTSEEIEAVNKREQQVATLLTLKMDYDTIKSILNGQGVLYQTTLKMPVATN | not soluble |
